According to paper doi:10.1101/2022.07.22.501140:
Read-outs that look alike come from different tables or passages of the source.

Experiments:
Test in all cases: fluorescence polarization
HsBicc1 N-term [1] = biological target: T1, HsBicc1 N-term (human, UniProt Q9H694 1-506)
XlBicc1 N-term (KH1-KH3) [2] = biological target: T2, XlBicc1 N-term (KH1-KH3) (Xenopus laevis, UniProt A0A1L8FE49 1-506)
DmBicc1 N-term [3] = biological target: T3, DmBicc1 N-term (Drosophila melanogaster, UniProt Q24009 1-506)
T3 sequence: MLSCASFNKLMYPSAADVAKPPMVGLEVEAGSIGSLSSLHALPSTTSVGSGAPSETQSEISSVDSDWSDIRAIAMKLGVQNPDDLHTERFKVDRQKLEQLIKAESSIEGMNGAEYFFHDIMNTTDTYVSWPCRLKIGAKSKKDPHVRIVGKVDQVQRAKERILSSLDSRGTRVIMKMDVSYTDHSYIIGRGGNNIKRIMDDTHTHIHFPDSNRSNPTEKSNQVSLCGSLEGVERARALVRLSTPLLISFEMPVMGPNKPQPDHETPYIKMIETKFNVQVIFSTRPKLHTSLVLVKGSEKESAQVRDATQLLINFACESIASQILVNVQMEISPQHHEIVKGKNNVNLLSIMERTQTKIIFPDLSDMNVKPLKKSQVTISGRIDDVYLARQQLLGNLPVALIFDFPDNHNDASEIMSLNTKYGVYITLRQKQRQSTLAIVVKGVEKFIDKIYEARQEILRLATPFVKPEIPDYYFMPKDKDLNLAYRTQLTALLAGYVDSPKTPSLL

XlKH1-DmBicc1KH2-KH3 [4] = biological target: T4, XlKH1-DmBicc1KH2-KH3 (Xenopus laevis / Drosophila …, UniProt A0A1L8FE49 1-134+Q24009:179-506, internal_change)
XlBicc1 N-term (KH1-KH3) [5] = biological target: T2, XlBicc1 N-term (KH1-KH3); remark: listed apart in the source
XlKH1-DmBicc1KH2-KH3 [6] = biological target: T4, XlKH1-DmBicc1KH2-KH3; remark: listed apart in the source
HsBicc1 N-term [7] = biological target: T1, HsBicc1 N-term; remark: listed apart in the source
DmBicc1 N-term [8] = biological target: T3, DmBicc1 N-term; remark: listed apart in the source
HsBicc1 N-term [9] = biological target: T1, HsBicc1 N-term; remark: listed apart in the source
XlBicc1 N-term (KH1-KH3) [10] = biological target: T2, XlBicc1 N-term (KH1-KH3); remark: listed apart in the source

T1 sequence (Q9H694 1-506): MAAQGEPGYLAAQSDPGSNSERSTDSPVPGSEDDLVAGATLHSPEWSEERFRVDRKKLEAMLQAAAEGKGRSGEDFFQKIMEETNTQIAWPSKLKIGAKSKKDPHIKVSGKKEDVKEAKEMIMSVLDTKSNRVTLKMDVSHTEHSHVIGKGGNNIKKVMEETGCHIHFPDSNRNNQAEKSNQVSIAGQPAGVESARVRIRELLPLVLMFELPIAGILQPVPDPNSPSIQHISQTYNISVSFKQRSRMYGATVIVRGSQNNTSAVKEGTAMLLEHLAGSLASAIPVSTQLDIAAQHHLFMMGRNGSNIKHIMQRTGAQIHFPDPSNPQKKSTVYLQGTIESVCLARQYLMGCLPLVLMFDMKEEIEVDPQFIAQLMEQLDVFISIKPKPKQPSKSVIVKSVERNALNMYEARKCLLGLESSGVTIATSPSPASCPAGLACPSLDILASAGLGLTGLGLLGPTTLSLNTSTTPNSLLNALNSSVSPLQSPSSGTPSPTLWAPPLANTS

B1: XlCripto-1 wild-type RNA site (structured_RNA)
RNA: CUUAUUAGACACGUUGUACAUUAACAGCUCC
- binding result (HsBicc1 N-term [1]): binds
- Kd (XlBicc1 N-term (KH1-KH3) [2]): 34 nM
- Kd (DmBicc1 N-term [3]): 93 nM
- Kd (XlKH1-DmBicc1KH2-KH3 [4]): 89 nM

B2: Cripto-1 loop variant (structured_RNA)
RNA: CUUAUUAGACACGUUGUCGCGAAACAGCUCC
- Kd (XlBicc1 N-term (KH1-KH3) [5]): ~12000 nM
- binding result (XlKH1-DmBicc1KH2-KH3 [6]): no binding
- binding signal (HsBicc1 N-term [7]): 15 fold reduction vs wild-type RNA
- binding signal (DmBicc1 N-term [8]): 3.2 fold reduction vs wild-type RNA

B3: Cripto-1 leader variant (structured_RNA)
RNA: CGACUCUAGAAGGUUGUACAUUAACAGCUCC
- binding result (XlBicc1 N-term (KH1-KH3) [2]): no binding
- binding result (HsBicc1 N-term [9]): no binding
- binding result (DmBicc1 N-term [3]): no binding

B4: Cyclin B1 negative control RNA (ssRNA)
RNA: CGACUCUAGAAGGACUACGUGGCAUUCCAAUU
- binding result (XlBicc1 N-term (KH1-KH3) [10]): no binding
